Results on one molecule are retold here after patent US11230711B2, “Inhibition of LET7I as a means to enhance the protective effect of progesterone against stroke” (UNIVERSITY OF NORTH TEXAS HEALTH SCIENCE CENTER, priority 2017, dated 2022).

The assay concerns primary cortical neurons. Put plainly: Synaptic marker expression (Synaptophysin, Gap-43) in primary cortical neurons, immunostaining and qRT-PCR. The assay is classed as cell-based, mouse. Particulars: P4-ACM from 10 nM P4-treated astrocytes, 18 hrs, BDNF 50 ng/ml, FIGS. 1A-1B. From the text: FIG. 1A represents immune-staining of Gap43 (green) and Synaptophysin (red). FIG. 1B represents qRT-PCR analysis of Gap43 (left) and Synaptophysin (right) mRNA levels. Data are presented as a percentage of control (non-treated group) (*: p≤0.05, **:p≤0.01).
The use of animals for the purpose of generating primary cultures was approved by the Institutional Animal Care and Use Committee at the University of North Texas Health Science Center. All mice will be handled according to the Guide for the Care and Use of Laboratory Animals. Primary cultures of cortex and hippocampal neurons will be prepared from neonatal murine pups (C57BL/6 mice, Jackson Laboratory) as described by Sarkar et al. with modifications. Briefly, cortical tissues isolated from newborn mice (postnatal days 2-4, mixed gender) will be then dissociated with trypsin and DNase I for 10 min at 37° C., and wash twice with Neurobasal-A medium containing B-27 and further dissociated by gentle titration using a graded series of fine polished Pasteur pipettes. After centrifugation at 200×g for 3 min at 4° C., dissociated cells will be resuspended in Neurobasal-AB-27 medium, passed through a cell strainer with 70 μm mesh, and plated at 1.0×10^5 cells/cm2 on culture dishes precoated with poly-D-lysine. The culture dishes were kept at 37° C. in humidified 95% air and 5% CO2. For primary neuron-enriched culture, the initial culture medium was replaced after 5 h; subsequently, half of the medium was changed every 3 days. At day in vitro (DIV) 3, 1-β-arabinofuranosylcytosine (AraC) was added to a final concentration of 5 μM to prevent glial proliferation. Treatments of the primary neuronal cultures started at DIV 14. For glial-enriched cultures, confluent mixed glial cultures were placed on the shaker for 48 hrs to dislodge microglia, resulting in cultures enriched with astrocyte population.
Although the underlying mechanism remains unclear, one potential mediator for P4-induced synaptogenesis is BDNF [33].
In general terms: Quantitative PCR measures a nucleic acid by following its amplification.

[1] abbreviates: listed as purified recombinant BDNF.

B1: BDNF: purified recombinant brain-derived neurotrophic factor, 50 ng/ml, positive control (protein, UniProt P23560 19-247, looked up)
Neurotrophic factor BDNF …: APMKEANIRGQGGLAYPGVRTHGTLESVNGPKAGSRGLTSLADTFEHVIEELLDEDQKVRPNEENNKDADLYTSRVMLSSQVPLEPPLLFLLEEYKNYLDAANMSMRVRRHSDPARRGELSVCDSISEWVTAADKKTAVDMSGGTVTVLEKVPVSKGQLKQYFYETKCNPMGYTKEGCRGIDKRHWNSQCRTTQSYVRALTMDSKKRIGWRFIRIDTSCVCTLTIKRGR
On to B1, for which the “expression of Gap-43” value was “increased expression” and the “expression of Synaptophysin” value was “increased expression”. Besides, under setting [1], the “expression of Gap-43” value was “increased the expression” and the “expression of Synaptophysin” value was “increased the expression”.
